Laboratory results taken from the nanobody polyreactivity screen of Harvey et al. (2022).

Assay: yeast display, Sf9 membrane polyspecificity reagent, FACS + sequencing; frameworks hold sequencing errors
Procedure, shortened: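 Sorting gates, low and high (top ~1%), were placed on anti-HA fluorescence to track expression and on streptavidin fluorescence to track reagent binding. A clone's polyreactivity label is taken from the gate it came out of. The reagent was 10% biotinylated, detergent-solubilized Sf9 membrane, applied for 1 hour at 4 °C to galactose-induced yeast display cells.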

Sequence | polyreactivity (PSR sort gate)
QVQLVESGGGLVQAGGSLRLSCAASGFIFYRYAMGWYRQAPGKERELVAAISTLGGSTFYADSVKGRFTISRDNAKNTVYLQMISLKPEDTAVYYCATGPLRAYDYWGQGTQVTVSS | high polyreactivity
QVQLVESGGGLVQAGGSLRLSCAASGFIFYRYAMGWYRQAPGKERELVASITKRGGSTRYADSVKGRFTISRDNAKNTVYLQMNSLKPEDTAVYYCAKVPYSTAFDYWGQGTQVTVSS | high polyreactivity
QVQLVESGGGLVQAGGSLRLSCAASGFIFYRYAMGWYRQAPGKESELVAAISRSGGSKYYADSVKGRFTISRDLANNTVYLQLNSLKPEDTAVYYCATPVHRKLYLVNYWGQGTQVTVSS | low polyreactivity
QVQLVESGGGLVQAGGSLRLSCAASGFIFYSNAMGWYRQAPGKDRELVASITGDGGTTYYADSVKGRFTISRDKAKNTVYLQMNSLKPEATAVYYCAKDYIYRGYYTDFRYEDYDYWGPGTQVTVSS | low polyreactivity
QVQLVESGGGLVQAGGSLRLSCAASGFIFYSNAMGWYRQAPGKERELVAAIRSTGSTSYADSVKGRFTISRDNAKNTVYLQMNSLKPEDTAVYYCAKVRYWRGYDYWGQGTQVTVSS | high polyreactivity
QVQLVESGGGLVQAGGSLRLSCAASGFIFYSNAMGWYRQEPGKERELVAAITSGGGSTYYADSVKGRFTISRDNAKNTVYLQMNSLKPEDTAVYYCAVSIGRYPYRYGYWGQGTQVTVSS | high polyreactivity
QVQLVESGGGLVQAGGSLRLSCAASGFIFYSYAMGWNRQAPGKERELVADISRSGSTNYADSVKGRFTISRDNAKNTVYLQMNSLKPEDTAVYYCNKGYHSWSRLSQFGWSYDYWGQGTQVTVSS | high polyreactivity
QVQLVESGGGLVQAGGSLRLSCAASGFIFYSYAMGWYRQAPGKEREFVASISGRTGSTYYADSVKGRFTISRDNAKNTVYLQMNSLKPEDTAVYYCNARIVHSFRYDYWGQGTQVTVSS | low polyreactivity
QVQLVESGGGLVQAGGSLRLSCAASGFIFYSYAMGWYRQAPGKERELVATITSGGSTNYADSVKGRFTISRDNAKNTVYLQMNSLKPEDTAVYYCAARYYPFWARRNRYDYWGQGTQVTVSS | high polyreactivity
QVQLVESGGGLVQAGGSLRLSCAASGFIFYSYDMGWYRQAPGKERELVAANDSRGVNTYYADSVKGRFTISRDNAKNTVYLQMNSLKPEDTAVYYCAAQASSQIDYYGGHYGYWGQGTQVTVSS | low polyreactivity
QVQLVESGGGLVQAGGSLRLSCAASGFIFYVYAMGWYRQAPGKERELVAAISADGGITYYADSVKGRFTISRDNAKNSVYFQMNSLKPEDTAVYYCNTLGDQDAYAGFRLDYWGQGTQVTVSS | low polyreactivity
QVQLVESGGGLVQAGGSLRLSCAASGFIFYYDAMGWYIQAPGKERELVARIYSGRSTYYADSVKGRFTISRDNAKNTVYLQMNSLKPEDTAVYYCNATRLVWFSQGYDYWGQGTQVTVSS | high polyreactivity
QVQLVESGGGLVQAGGSLRLSCAASGFIFYYNAMGWYRQAPGKERELVAAITRSGGSTYYADSVKGRFTISRDNAKNTVYLQMNSLKPEDTAVYYCAARVYPYHWSYYYWGQGTQVTVSS | high polyreactivity
QVQLVESGGGLVQAGGSLRLSCAASGFIFYYNAMGWYRQAPGKERELVARISSGSGTYYADSVKGRFTISRDNAKNTVYLQMNSLKPEDTAVYYCAARYPRGAMYYWGQGTQVTVSS | low polyreactivity
QVQLVESGGGLVQAGGSLRLSCAASGFIFYYYAMGWYRQAPGKERELVAAISRSGGSTYYADSVKGRFTISRDNAKNTVYLQMNSLKPEDTAVYYCAVYGYYALTHWEYDYWGQGTQVTVSS | high polyreactivity
QVQLVESGGGLVQAGGSLRLSCAASGFIFYYYAMGWYRQAPGKERELVAAITSSGGSTYYADSVKGRFTISRDNAKNTVYLQMISLKPEDTAVYYCNALQYSRMDYWGQATQVTVSS | high polyreactivity
QVQLVESGGGLVQAGGSLRLSCAASGFIFYYYAMGWYRQAPGKERELVASISSDGSTYYADSVKGRFTISRDNAKNTVYLQMNSLKPEDTAVYYCNADRYYPDDLSDGVGTYDYWGQGTQVTVSS | low polyreactivity
QVQLVESGGGLVQAGGSLRLSCAASGFIIDCYAMGRYRQAPGKERELVAVISQRGSNTYYADSVKGRFTISRDHAKNTVYLQMNSLKPEDTAVYYCAARYKQGDSTGGRMNYWGQGTQVTVSS | high polyreactivity
QVQLVESGGGLVQAGGSLRLSCAASGFIIDTYPMGCYRQAPGKERELVAAITRSGGSTYYADSVKGRFTISRDNAKNTVYLQMNSLKPEDTAVYYCAARQRYTRYDYWGQGTQVTVSW | high polyreactivity
QVQLVESGGGLVQAGGSLRLSCAASGFIIDYYAKGWYRQAPGKERELVASITDSTTYYADSVKGRFTISRDNAKNTVYLQMNSLKPEDTAVYYCNARGGYAYVLYDYWGQGTQVTVSS | low polyreactivity
QVQLVESGGGLVQAGGSLRLSCAASGFIIFDYAMGWYRQAPGKESELVAAITSGGSTDYADSVKGRFTLSRDNAKNTVYLQMNSLKPEDTAVYYCAAVYGSVSRYDYWGQGTQVTVSA | low polyreactivity
QVQLVESGGGLVQAGGSLRLSCAASGFIIKANAMGWYRQAPGKERELVASITFGGDSTYYADSVKGRFTISRDNAKNTVYLQMNSLKPEDTAVYYCNTRRRSYRTYYYWGQGTQVTVLS | low polyreactivity

Sequence | polyreactivity (PSR sort gate)
QVQLVESGGGLVQAGGSLRLSCAASGFIIKGNVMGWYRQAPGKERELVAAITRRGSTYYADSVKGRFTISRDNAKNTVYLQMNSLKPEDTAVYYCAARPWKAIEKVDGSGGGDYWGQGTQVTVSS | low polyreactivity
QVQLVESGGGLVQAGGSLRLSCAASGFIIKSYAMGWYRQAPGKERELVAAISYTGSITYYADSVKGRFTISRDNAKNTVYLQMNSLKPEDTAVYYCAVGRYADQHDYWGQGTQVTVSS | high polyreactivity
QVQLVESGGGLVQAGGSLRLSCAASGFIIPGYAMGWYRQAPGKERELVAAISSGTSTYYADSVKGRFTISRDNAKNTVYLQMNSLKPEATAVYYCAADTWYRFGYWGQGTQVTVSS | low polyreactivity
QVQLVESGGGLVQAGGSLRLSCAASGFIIPGYAMGWYRQAPGKERELVAAISSGTSTYYEDSVKGRFTISRDNAKNTVYLQMNSLKPEATAVYDCAAETWYRFGYWGQGTQVTVSS | low polyreactivity
QVQLVESGGGLVQAGGSLRLSCAASGFIIPYYAMGWYRQAPGKERELVAAISRSGGSTYYADSVKGRFTISRDNAKNTVYLQMHSLKPEDTAVYYCATRKGGTLYNYWGQGTQVTVSS | high polyreactivity
QVQLVESGGGLVQAGGSLRLSCAASGFIIQGNALGWYRQAPGTERELVAAISSSVSTYYADSVKGRFTISRDNAKNTVYLQMNSLKPEDNAVYDCNAGFPLSLWLGDYWGQGTLVTVSS | low polyreactivity
QVQLVESGGGLVQAGGSLRLSCAASGFIIRGNVMGWSRQAPGKERELVAAISGRGGSTYYADSVKGRFTISRDNAKNTVYLQRNILKPEDTGVYYCNAAGLYNSRLDYWGQGTQVTVSS | high polyreactivity
QVQLVESGGGLVQAGGSLRLSCAASGFIITYYAMGWYRQATGKDRELVAVISWSGGTTYYAESVKGRFTISRDNATNTVYLQMNSLKPEDTAVYYCAAYRYFRPGDYWGQGTQVTVSS | low polyreactivity
QVQLVESGGGLVQAGGSLRLSCAASGFIIYFNAMGWYRQPRGKERELVASITSGASTNYADSVKGRFTISRDNAKNTVYLQMNSLKPEDTAVYYCAAAYFWLDPYVEYDYWGQGTQVTVSS | low polyreactivity
QVQLVESGGGLVQAGGSLRLSCAASGFILDTYGMGWYRQAPGKERELVAAISQSDVSTYYADSVKGRFTISRDNAKNTVYLQMNSLKPEDTAVYYCNAGAGKRGYDYWGQGTQVTVSS | low polyreactivity
QVQLVESGGGLVQAGGSLRLSCAASGFILDWYAMGWYRQAPGKERELVAAISYSGGSTYYADSVKGRFTISRDNAKNTVYLQMNSLKPEDTAVYYCNADIWYGDMDYWGQGTQVTVSS | high polyreactivity
QVQLVESGGGLVQAGGSLRLSCAASGFILDYNAMGWYRQAPGKERELVAAITNGGITYYADSVKGRFTISRDNAQNTVYLQMNSLKPEDTAVYYCAADNDTDHSSATYGYDYWGQGTQVTVSS | low polyreactivity
QVQLVESGGGLVQAGGSLRLSCAASGFILDYNTMGWYRQAPGNERELVAAISSSGDTTYYADSVKGRFTISRDNAKNTVYLQMNSLKPEDTAVYYCAREYGDGYEYWGQGTQVTVSS | low polyreactivity
QVQLVESGGGLVQAGGSLRLSCAASGFILDYYAMGWYRQAPGKERELVATITGRGDRTYYADSVKGRFTISRDNAMNTVYLQMNSLKPEDTAVSYCAAGFDGSRHPGFDSWGQGTQVTVSS | low polyreactivity
QVQLVESGGGLVQAGGSLRLSCAASGFILEDYTMGWYRQAPGKERELVAAISSGGTRTYYADSVKGRFTISRDNAKNTVYLQMNSLKPEDTAVYYCTTRRGERGYWGQGTQVTVSS | high polyreactivity
QVQLVESGGGLVQAGGSLRLSCAASGFILFFNAMGWYRAPWKERELVAGITQSGGSTYYADSVKGRFTISRDNAKNPVYLQMNSLKPEDTAVYYCAAELYDRWSRMDYWGQGTQVTVSS | low polyreactivity
QVQLVESGGGLVQAGGSLRLSCAASGFILGRYAMGWYRQAPGKERELVAAISIGGRTNYADSVKGRFTISRDNAKNTVYLQMNSLKPEDTEVYYCAVDRYVTYSLSNSLYEYWGQGTQVTVSS | low polyreactivity
QVQLVESGGGLVQAGGSLRLSCAASGFILGTYAMGWYRQATGKERELVADISWSVGSTYYADSVKGRFTISRDNAKNTVYLQMISLKPEDTAVYYCNADGYTLWYEYDYWGQGTQVTVSS | low polyreactivity
QVQLVESGGGLVQAGGSLRLSCAASGFILGVYAMGWYRQAPGKERELVAAITFSGASTYYADSVKGRFTISRDNAKNTVYLQMNSLKPEDTAVYYCNKTSAYYRYEYWGQGTQVTVSS | low polyreactivity
QVQLVESGGGLVQAGGSLRLSCAASGFILNFYAMGWYRQAPGKERELVAAISTSGGSTYYADSVKGRFTISRDNAKNTVYLQMNSLKPEDTAGYYCAARRARTYHTSSGYRGYYYWGQGTQVTVSS | high polyreactivity
QVQLVESGGGLVQAGGSLRLSCAASGFILWYYTMGWYRQAPGKERELVAVIDWSGDSTYADSVKGRFTISRDNAKNTVYLQMNSLKPEDTAVYYCNKGYPSPQDTYYVPMDYWGQGTQVTVSS | low polyreactivity
